Test results reported in US20230265151A1, “GIP/GLP1 CO-AGONIST COMPOUNDS” (priority 2020, published 2023).
Substitutions are numbered along the chain they refer to.

T1: hGIPR (Homo sapiens, UniProt P48546)
T1 construct: expressed in transfected cells
T1 sequence (P48546 22-466): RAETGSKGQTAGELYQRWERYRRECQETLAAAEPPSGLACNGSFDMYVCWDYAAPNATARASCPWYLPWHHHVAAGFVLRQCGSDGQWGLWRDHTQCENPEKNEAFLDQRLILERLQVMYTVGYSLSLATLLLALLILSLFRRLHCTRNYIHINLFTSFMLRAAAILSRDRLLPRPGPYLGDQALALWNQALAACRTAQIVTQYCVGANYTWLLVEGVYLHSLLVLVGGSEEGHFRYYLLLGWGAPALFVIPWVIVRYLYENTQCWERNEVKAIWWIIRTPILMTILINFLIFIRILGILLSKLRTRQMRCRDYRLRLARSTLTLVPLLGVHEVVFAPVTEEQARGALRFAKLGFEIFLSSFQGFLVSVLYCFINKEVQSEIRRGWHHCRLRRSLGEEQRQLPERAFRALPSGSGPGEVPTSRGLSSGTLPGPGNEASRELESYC

T2: human GIP receptor (human, UniProt P48546 22-466)
T2 sequence (looked up): T1 sequence (P48546 22-466)

B1: Y-Aib-EGT-αMeF(2F)-TSD-4Pal-SI-αMeL-LD-Orn-IAQ-Aib-EFI-(D-Glu)-αMeY-LIK((2-[2-(2-Amino-ethoxy)-ethoxy]-acetyl)2-(γ-Glu)-(4-(4-tert-butylphenyl)butanoyl))GGPSSGA … (peptide)
peptide: YXEGTXTSDXSIXLDXIAQXEFIXXLIKGGPSSGAPPPSK
modifications: Aib2, αMeF(2F)6, 4Pal10, αMeL13, Orn16, Aib20, D-Glu24, αMeY25; acylated K28, K40 (groups as in name); C-terminal amide
B2: Y-Aib-EGT-αMeF(2F)-TSD-4Pal-Tle-I-αMeL-LD-Orn-K((2-[2-(2-Amino-ethoxy)-ethoxy]-acetyl)2-(γ-Glu)-CO-(CH2)12-CO2H)AQ-Aib-EFI-(D-Glu)-αMeY-LIEGGK((2-[2-(2-Amino-et … (peptide)
peptide: YXEGTXTSDXXIXLDXKAQXEFIXXLIEGGKSSGAPPPS
modifications: Aib2, αMeF(2F)6, 4Pal10, Tle11, αMeL13, Orn16, Aib20, D-Glu24, αMeY25; acylated K17, K31 (groups as in name); C-terminal amide
B3: Y-Aib-EGT-αMeF(2F)-TSD-4Pal-αMeS-I-αMeL-LD-Orn-IAQ-Aib-K((2-[2-(2-Amino-ethoxy)-ethoxy]-acetyl)2-(γ-Glu)-CO-(CH2)12-CO2H)FI-(D-Glu)-αMeY-LIK((2-[2-(2-Amino-etho … (peptide)
peptide: B2 peptide with K17I, E21K, E28K, K31P
modifications: Aib2, αMeF(2F)6, 4Pal10, αMeS11, αMeL13, Orn16, Aib20, D-Glu24, αMeY25; acylated K21, K28 (groups as in name); C-terminal amide
B4: Y-Aib-EGT-αMeF(2F)-TSD-4Pal-αMeS-I-αMeL-LD-Orn-K((2-[2-(2-Amino-ethoxy)-ethoxy]-acetyl)2-(γ-Glu)-CO-(CH2)12-CO2H)AQ-Aib-EFI-(D-Glu)-αMeY-LIEGGK((2-[2-(2-Amino-e … (peptide)
peptide: B2 peptide
modifications: Aib2, αMeF(2F)6, 4Pal10, αMeS11, αMeL13, Orn16, Aib20, D-Glu24, αMeY25; acylated K17, K31 (groups as in name); C-terminal amide
B5: Y-Aib-EGT-αMeF(2F)-TSD-4Pal-αMeS-I-αMeL-LD-Orn-IAQ-Aib-EFIK((2-[2-(2-Amino-ethoxy)-ethoxy]-acetyl)2-(γ-Glu)-CO-(CH2)12-CO2H)-αMeY-LIK((2-[2-(2-Amino-ethoxy)-eth … (peptide)
peptide: B2 peptide with K17I, X24K, E28K, K31P
modifications: Aib2, αMeF(2F)6, 4Pal10, αMeS11, αMeL13, Orn16, Aib20, αMeY25; acylated K24, K28 (groups as in name); C-terminal amide
B6: Y-Aib-EGT-αMeF(2F)-TSD-4Pal-αMeS-I-αMeL-LD-Orn-IAQ-Aib-K((2-[2-(2-Amino-ethoxy)-ethoxy]-acetyl)2-(γ-Glu)-CO-(CH2)12-CO2H)FIK((2-[2-(2-Amino-ethoxy)-ethoxy]-acet … (peptide)
peptide: B2 peptide with K17I, E21K, X24K, K31P
modifications: Aib2, αMeF(2F)6, 4Pal10, αMeS11, αMeL13, Orn16, Aib20, αMeY25; acylated K21, K24 (groups as in name); C-terminal amide
B7: Y-Aib-EGT-αMeF(2F)-TSD-4Pal-Ac5c-I-αMeL-LD-Orn-K((2-[2-(2-Amino-ethoxy)-ethoxy]-acetyl)2-(γ-Glu)-CO-(CH2)12-CO2H)AQ-Aib-EFI-(D-Glu)-αMeY-LIEGGK((2-[2-(2-Amino-e … (peptide)
peptide: B2 peptide
modifications: Aib2, αMeF(2F)6, 4Pal10, Ac5c11, αMeL13, Orn16, Aib20, D-Glu24, αMeY25; acylated K17, K31 (groups as in name); C-terminal amide

Assays:
[1] = target: T3, human GLP-1 receptor (hGLP-1R) (Homo sapiens, UniProt P43220); test: [125I]-GLP-1 binding, SPA with membranes of HEK293 cells expressing hGLP-1R; conditions: human GLP-1R; geometric mean (SEM, n); read-out: Binding Affinity Ki, nM (SEM, n) hGLP-1R
T3 construct: expressed in transfected cells; crude membranes
T3 sequence (P43220 24-463): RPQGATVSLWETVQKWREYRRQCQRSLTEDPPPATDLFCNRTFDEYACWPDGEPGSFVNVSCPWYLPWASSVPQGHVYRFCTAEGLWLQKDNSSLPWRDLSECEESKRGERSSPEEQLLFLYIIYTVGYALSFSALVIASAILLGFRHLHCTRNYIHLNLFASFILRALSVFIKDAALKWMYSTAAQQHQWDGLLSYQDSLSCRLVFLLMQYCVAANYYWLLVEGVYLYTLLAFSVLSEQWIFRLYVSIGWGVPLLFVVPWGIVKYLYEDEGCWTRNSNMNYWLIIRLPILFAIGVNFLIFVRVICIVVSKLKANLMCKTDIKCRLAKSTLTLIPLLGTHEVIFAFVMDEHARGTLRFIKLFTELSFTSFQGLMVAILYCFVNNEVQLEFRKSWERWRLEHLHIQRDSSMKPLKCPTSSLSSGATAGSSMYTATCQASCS
Description: Two methods are used for the preparation of crude cell membranes.
Method 1: Frozen cell pellets are lysed on ice in hypotonic buffer containing 50 mM Tris HCl, pH 7.5, and Roche Complete™ Protease Inhibitors with EDTA. […] The homogenate is centrifuged at 4° C. at 1100 × g for 10 minutes. The supernatant is collected and stored on ice while the pellets are resuspended in homogenization buffer and rehomogenized as described above. The homogenate is centrifuged at 1100 × g for 10 minutes. The second supernatant is combined with the first supernatant and centrifuged at 35000 × g for 1 hour at 4° C. The resulting membrane pellet is resuspended in homogenization buffer containing protease inhibitors at approximately 1 to 3 mg/mL, quick frozen in liquid nitrogen and stored as aliquots in a -80° C. freezer until use.
The homogenate is centrifuged at 4° C. at 1800 × g for 15 minutes. The supernatant is collected and stored on ice while the pellets are resuspended in homogenization buffer (without DNAse I) and rehomogenized as described above. The homogenate is centrifuged at 1800 × g for 15 minutes. The second supernatant is combined with the first supernatant and centrifuged an additional time at 1800 × g for 15 minutes. The overall supernatant is then centrifuged at 25000 × g for 30 minutes at 4° C. The resulting membrane pellet is resuspended in homogenization buffer (without DNAse I) containing protease inhibitors at approximately 1 to 3 mg/mL and stored as aliquots in a -80° C. freezer until use.
The human GLP-1 receptor binding assay is performed using an SPA format with WGA beads. The binding buffer contains 25 mM HEPES, pH 7.4, 2.5 mM CaCl2, 1 mM MgCl2, 0.1% (w/v) bacitracin, 0.003% (w/v) TWEEN®-20, and Roche Complete™ Protease Inhibitors without EDTA.
Raw CPM data for concentration curves of peptides, Gcg, GLP-1, or GIP are converted to percent inhibition by subtracting nonspecific binding (binding in the presence of excess unlabeled Gcg, GLP-1, or GIP, respectively) from the individual CPM values and dividing by the total binding signal, also corrected by subtracting nonspecific binding. Data are analyzed using four-parameter (curve maximum, curve minimum, IC50, Hill slope) nonlinear regression routines (Genedata Screener, version 12.0.4, Genedata AG, Basal, Switzerland). […] Values for Ki are reported as the geometric mean, with error expressed as the standard error of the mean (SEM) and n is equal to the number of independent replicates (determined in assays performed on different days). Geometric Means are calculated as follows: […]
The Ki Ratio (Ki for native control peptide/Ki for test compound) at each receptor and each species is calculated. The Ki Ratio is a rapid indication of the apparent affinity of a peptide compared to the native control peptide.
n=⅟x means that only one value out of the total number of replicates (x) is used to express the mean. SEM is only calculated when n=2 or greater non-qualified results exist. Means are expressed as GeoMetric means with the standard error of the mean (SEM) and the number of replicates (n) indicated in parenthesis.

hGLP-1R = hGLP-1R (Homo sapiens, UniProt P43220); test: Functional cAMP formation (HTRF) in HEK-293 clonal cells expressing hGLP-1R, 0.1% bovine casein, without or with 1.0% human serum albumin; assay type: cell-based; design: expressed in transfected cells; conditions: 37° C.
Sequence of hGLP-1R (P43220 24-463): as above
How it was run: (§1)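 Readings of the HTRF 665/620 nm ratio, which falls as cAMP rises, were converted to nM cAMP using a standard curve after 30 min peptide exposure at 37° C.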

hGIPR = target: T1, hGIPR; test: Functional cAMP formation (HTRF) in HEK-293 clonal cells expressing hGIPR, 0.1% bovine casein, without or with 1.0% human serum albumin; assay type: cell-based; conditions: 0.1% bovine casein and 1.0% human serum albumin, 37° C.; geometric mean; read-out: hGIPR EC50, nM (SEM, n)
How it was run: as §1

human glucagon receptor = human glucagon receptor (human, UniProt P47871 26-477); test: cell-based or functional assay
human GIP receptor = target: T2, human GIP receptor; test: cell-based or functional assay
human GLP-1 receptor = human GLP-1 receptor (human, UniProt P43220 24-463); test: cell-based or functional assay

| Molecule | Ki [1] [nM] | EC50 (hGLP-1R; 0.1% bovine casein and 1.0% human serum albumin, geometric mean, read-out: hGLP-1R EC50, nM (SEM, n)) [nM] | Emax (hGLP-1R; HEK293, percent of maximal response to GLP-1(7-36)NH2, 0.1% bovine casein, arithmetic mean, read-out: hGLP-1R Emax, % ± SEM) [%] | EC50 (hGIPR) [nM] | cAMP EC50 (1.0% HSA) (human glucagon receptor) [µM] | cAMP EC50 (1.0% HSA) (human GIP receptor) [nM] | cAMP Emax (1.0% HSA) (human GIP receptor) [%] | cAMP EC50 (1.0% HSA) (human GLP-1 receptor) [nM] | cAMP Emax (1.0% HSA) (human GLP-1 receptor) [%] |
| --- | --- | --- | --- | --- | --- | --- | --- | --- | --- |
| CCCCCCCCCCCCCCCC(=O)N[C@@H](CCC(=O)NCCOCCOCC(=O)NCCOCCOCC(=O)NCCCC[C@H](NC(=O)CNC(=O)CNC(=O)[C@H](CCC(=O)O)NC(=O)[C@@H](NC(=O)[C@H](CC(C)C)NC(=O)[C@](C)(Cc1ccc(O)cc1)NC(=O)[C@@H](CCC(=O)O)NC(=O)[C@@H](NC(=O)[C@H](Cc1ccccc1)NC(=O)[C@H](CCC(=O)O)NC(=O)C(C)(C)NC(=O)[C@H](CCC(N)=O)NC(=O)[C@H](C)NC(=O)[C@H](CCCCNC(=O)COCCOCCNC(=O)COCCOCCNC(=O)CC[C@H](NC(=O)CCCCCCCCCCCCCCC)C(=O)O)NC(=O)[C@H](CCCN)NC(=O)[C@H](CC(=O)O)NC(=O)[C@H](CC(C)C)NC(=O)[C@](C)(CC(C)C)NC(=O)[C@@H](NC(=O)[C@H](CO)NC(=O)[C@H](Cc1ccncc1)NC(=O)[C@H](CC(=O)O)NC(=O)[C@H](CO)NC(=O)[C@@H](NC(=O)[C@](C)(Cc1ccccc1F)NC(=O)[C@@H](NC(=O)CNC(=O)[C@H](CCC(=O)O)NC(=O)C(C)(C)NC(=O)[C@@H](N)Cc1ccc(O)cc1)[C@@H](C)O)[C@@H](C)O)[C@@H](C)CC)[C@@H](C)CC)[C@@H](C)CC)C(=O)N[C@@H](CO)C(=O)N[C@@H](CO)C(=O)NCC(=O)N[C@@H](C)C(=O)N1CCC[C@H]1C(=O)N1CCC[C@H]1C(=O)N1CCC[C@H]1C(=O)N[C@@H](CO)C(N)=O)C(=O)O [Example 7] | 0.362 | 2.74 | 95.4 ± 5.03 | 0.566 | – | – | – | – | – |
| B1 | – | – | – | – | > 9.95 | 0.242 | 77.6 | 3.03 | 98.1 |
| B2 | – | – | – | – | > 9.95 | 6.09 | 75.3 | 62.2 | 109 |
| B3 | – | – | – | – | > 9.95 | 7.84 | 62.7 | 87.8 | 118 |
| B4 | – | – | – | – | > 9.95 | 4.38 | 95.6 | 40.3 | 102 |
| B5 | – | – | – | – | > 9.95 | 5.31 | 63.4 | 32.3 | 117 |
| B6 | – | – | – | – | > 9.95 | 0.925 | 91.3 | 14.8 | 107 |
| B7 | – | – | – | – | > 9.95 | 2.16 | 64.5 | 94.2 | 99 |
